Positions count from the first letter of the chain named.
T1: hIL-18BP-hFc (human, UniProt O95998 31-194, limits assumed)
T1 sequence (looked up): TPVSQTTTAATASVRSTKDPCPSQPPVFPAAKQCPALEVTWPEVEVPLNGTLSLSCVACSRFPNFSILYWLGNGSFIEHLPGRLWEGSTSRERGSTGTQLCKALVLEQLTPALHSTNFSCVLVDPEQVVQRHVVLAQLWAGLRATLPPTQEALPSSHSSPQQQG

T2: hIL-18 receptor (hIL-18Rα and hIL-18Rβ) (human, UniProt Q13478 19-541; O95256 20-599)
T2 sequence (looked up) 1: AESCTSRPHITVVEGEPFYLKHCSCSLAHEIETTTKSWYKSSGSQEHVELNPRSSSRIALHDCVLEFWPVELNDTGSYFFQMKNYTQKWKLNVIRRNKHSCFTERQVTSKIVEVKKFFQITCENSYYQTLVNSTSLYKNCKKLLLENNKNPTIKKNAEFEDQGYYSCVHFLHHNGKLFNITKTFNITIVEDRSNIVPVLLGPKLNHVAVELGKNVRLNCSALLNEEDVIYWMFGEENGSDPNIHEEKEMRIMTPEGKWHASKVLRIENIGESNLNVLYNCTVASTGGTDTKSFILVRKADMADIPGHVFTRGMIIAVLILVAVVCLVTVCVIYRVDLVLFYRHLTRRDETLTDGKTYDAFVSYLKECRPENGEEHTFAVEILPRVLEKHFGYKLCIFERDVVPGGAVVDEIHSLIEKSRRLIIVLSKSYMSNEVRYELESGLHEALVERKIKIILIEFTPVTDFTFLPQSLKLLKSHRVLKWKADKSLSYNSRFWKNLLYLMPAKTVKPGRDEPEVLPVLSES
T2 sequence (looked up) 2: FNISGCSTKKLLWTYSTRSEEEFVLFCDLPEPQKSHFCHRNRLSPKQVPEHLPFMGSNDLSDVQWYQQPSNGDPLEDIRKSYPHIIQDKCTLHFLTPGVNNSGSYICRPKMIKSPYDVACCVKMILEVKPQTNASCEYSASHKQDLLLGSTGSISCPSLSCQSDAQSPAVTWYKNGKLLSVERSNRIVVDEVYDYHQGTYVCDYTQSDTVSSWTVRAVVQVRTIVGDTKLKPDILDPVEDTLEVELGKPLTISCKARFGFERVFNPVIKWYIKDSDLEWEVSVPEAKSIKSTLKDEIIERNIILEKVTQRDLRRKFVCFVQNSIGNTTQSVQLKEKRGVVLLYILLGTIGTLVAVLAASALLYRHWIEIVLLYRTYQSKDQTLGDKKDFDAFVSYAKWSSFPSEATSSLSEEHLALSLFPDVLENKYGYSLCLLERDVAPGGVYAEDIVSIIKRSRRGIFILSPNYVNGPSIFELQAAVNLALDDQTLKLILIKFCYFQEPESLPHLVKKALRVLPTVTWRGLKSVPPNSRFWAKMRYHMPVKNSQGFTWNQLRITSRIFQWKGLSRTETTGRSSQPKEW

B1: IL-18 variant polypeptide M13 (ligand)
chain: YFPKLKSKLSVIRNLNDQVLFIDQGNRPLFEDMTDSDCRDNAPRTIFIISMYKQSIWRGMAVTISVKCEKISTLSCENKIISFKEMNPPDNIKDTKSDIIFFQRSVPGHDNKMQFESSSYEGYFLACEKERDLFKLILKKEDELGDRSIMFTVQNED
B2: IL-18 variant polypeptide M15 (ligand)
chain: B1 chain with K6R, Q54S, I56Y, W57T, N91G
B3: IL-18 variant polypeptide M17 (ligand)
chain: B1 chain with K6R, Q54L, I56T, W57A, N91G
B4: IL-18 variant polypeptide M21 (ligand)
chain: B1 chain with K6R, Q54S, I56S, W57T, N91G, R104S
B5: IL-18 variant polypeptide M24 (ligand)
chain: B1 chain with K6R, Q54Y, I56T, W57S

Assays:
Assay in all cases: cell-based or functional assay
hIL-18BP-hFc [1] = target: T1, hIL-18BP-hFc
[2] = target: T2, hIL-18 receptor (hIL-18Rα and hIL-18Rβ)
hIL-18BP-hFc [3] = target: T1, hIL-18BP-hFc; remark: listed apart in the source
[4] = target: T2, hIL-18 receptor (hIL-18Rα and hIL-18Rβ); remark: listed apart in the source

| Binder | EC50 (nM) in the Presence of 1 µg/mL hIL-18BP-hFc, hIL-18 reporter assay (hIL-18BP-hFc [1]) | EC50 Fold Change (+BP/-BP), hIL-18 reporter assay (hIL-18BP-hFc [1]) | EC50 (nM), hIL-18 reporter assay [2] | EC50 (nM) in the Presence of 1 µg/mL hIL-18BP-hFc, PBMC assay (hIFNγ release) (hIL-18BP-hFc [3]) | EC50 Fold Change (+BP/-BP), PBMC assay (hIFNγ release) (hIL-18BP-hFc [3]) | EC50 (nM), PBMC assay (hIFNγ release) [4] |
| --- | --- | --- | --- | --- | --- | --- |
| B1 | 0.026 nM | 0.74 fold | 0.035 nM | 0.025 nM | 1.25 fold | 0.02 nM |
| B2 | 0.12 nM | 0.92 fold | 0.13 nM | 0.036 nM | 0.73 fold | 0.049 nM |
| B3 | 0.32 nM | 0.78 fold | 0.41 nM | 0.13 nM | 1 fold | 0.13 nM |
| B4 | 2.1 nM | 1.11 fold | 1.9 nM | 0.049 nM | 1.09 fold | 0.045 nM |
| B5 | 1.99 nM | 2.01 fold | 0.99 nM | 0.08 nM | 1.48 fold | 0.054 nM |

From US20260092093A1 (TJ BIOPHARMA SHANGHAI, published 2026)
